Assay results published in paper PMC9279424.
“And” between values parts separate entries of the source, which are not always exact repeats. Equal values may be shown once.

What was measured:
[1] = molecular target: Cyani HAP2 ectodomain (residues 28–564) fusion loop mutant FL2 (L210A, L211A, F213A) (Cyanidioschyzon merolae); assay: SEC; WT and mutant ectodomains (16 μM) with nine volumes of citrate buffer pH 3.5, 500 mM NaCl, 0.1% DDM, 37 °C; running buffer pH 3.5 with 0.01% DDM
[2] = molecular target: Cyani HAP2 ectodomain (residues 28–564) fusion loop mutant FL2 (L210A, L211A, F213A) (Cyanidioschyzon merolae); assay: SEC; WT and mutant ectodomains (16 μM) with nine volumes of citrate buffer pH 4.3, 500 mM NaCl, 0.1% DDM, 2 or 4 h at 37 °C; running buffer pH 4.3 with 0.01% DDM
[3] = molecular target: Cyani HAP2 D1D2 (residues 28–457) (Cyanidioschyzon merolae); assay: negative-stain EM; Cyani HAP2 D1D2 at pH 1.5 in 0.1% β-DDM, 26 h, 37 °C; 2D class averages
[4] = molecular target: Cyani HAP2 D1D2 (residues 28–457) (Cyanidioschyzon merolae); assay: negative-stain EM; Cyani HAP2 D1D2 at pH 5.0 in 0.1% β-DDM, 26 h, 37 °C; 2D class averages
[5] = molecular target: Cyani HAP2 ectodomain (residues 28–564) fusion loop mutant FL3 (W147A, L148A) (Cyanidioschyzon merolae); assay: SEC; WT and mutant ectodomains (16 μM) with nine volumes of citrate buffer pH 3.5, 500 mM NaCl, 0.1% DDM, 37 °C; running buffer pH 3.5 with 0.01% DDM
[6] = molecular target: Cyani HAP2 ectodomain (residues 28–564) fusion loop mutant FL3 (W147A, L148A) (Cyanidioschyzon merolae); assay: SEC; WT and mutant ectodomains (16 μM) with nine volumes of citrate buffer pH 4.3, 500 mM NaCl, 0.1% DDM, 2 or 4 h at 37 °C; running buffer pH 4.3 with 0.01% DDM
[7] = molecular target: Cyani HAP2 ectodomain (aa 28–564), from Drosophila S2 cells (Cyanidioschyzon merolae); assay: negative-stain EM; Cyani HAP2 incubated with β-DDM at pH 5.0, 37 °C, 2 h, gel filtered; 2D class averages
[8] = molecular target: Cyani HAP2 ectodomain (aa 28–564), from Drosophila S2 cells (Cyanidioschyzon merolae); assay: negative-stain EM; Cyani HAP2 incubated with β-DDM at pH 5.0, 37 °C, 26 h, gel filtered; 2D class averages
[9] = molecular target: Cyani HAP2 ectodomain (aa 28–564), from Drosophila S2 cells (Cyanidioschyzon merolae); assay: negative-stain EM; gel filtration peak of Cyani HAP2 treated with β-DDM at pH 2.0, 37 °C; 2D class averages
[10] = molecular target: Cyani HAP2 ectodomain (aa 28–564), from Drosophila S2 cells (Cyanidioschyzon merolae); assay: SEC-MALS; Superdex 200 10/300 GL; Cyani HAP2 trimer formed at pH 1.5 with β-DDM; protein conjugate model (glycoprotein and β-DDM components)
[11] = molecular target: Cyani HAP2 ectodomain (aa 28–564), from Drosophila S2 cells (Cyanidioschyzon merolae); assay: SEC; incubated with 0.1% β-DDM, 500 mM NaCl at pH 1.5, 2.0, 3.5, 4.3 or 5.0, 37 °C, 26 h; Superdex 200 in buffer of the same pH, 0.01% β-DDM; monomer to trimer
[12] = molecular target: Cyani HAP2 ectodomain (residues 28–564), wild type, from Expi293F cells (Cyanidioschyzon merolae); assay: SEC; WT and mutant ectodomains (16 μM) with nine volumes of citrate buffer pH 3.5, 500 mM NaCl, 0.1% DDM, 37 °C; running buffer pH 3.5 with 0.01% DDM
[13] = molecular target: Cyani HAP2 ectodomain (residues 28–564), wild type, from Expi293F cells (Cyanidioschyzon merolae); assay: SEC; WT and mutant ectodomains (16 μM) with nine volumes of citrate buffer pH 4.3, 500 mM NaCl, 0.1% DDM, 2 or 4 h at 37 °C; running buffer pH 4.3 with 0.01% DDM
[14] = molecular target: Cyani HAP2 ectodomain (residues 28–564), wild type, from Expi293F cells (Cyanidioschyzon merolae); assay: SEC; WT and mutant ectodomains (16 μM) with nine volumes of citrate buffer pH 4.7, 500 mM NaCl, 0.1% DDM; gel filtered immediately or after 2 h at 37 °C in pH 4.7 buffer with 0.01% DDM
[15] = molecular target: Chlamy HAP2 (Chlamydomonas reinhardtii HAP2), purified monomer (Chlamydomonas reinhardtii); assay: negative-stain EM; Chlamy HAP2 at pH 7.5 with 0.1% β-DDM, 2 h, 23 °C, gel filtered; 2D class averages
[16] = molecular target: Chlamy HAP2 (Chlamydomonas reinhardtii HAP2), purified monomer (Chlamydomonas reinhardtii); assay: negative-stain EM; Chlamy HAP2 at pH 7.5 with 0.1% β-DDM, 26 h, 23 °C, gel filtered; 2D class averages

Question: Which stoichiometry N [1] does the source give for “Cyani HAP2 ectodomain (residues 28–564) fusion loop mutant FL2 (L210A, L211A, F213A) (domain or fragment)” here?
Answer: 3

Question: What about the stoichiometry N [2] of the same substance?
Answer: 3

Question: For “Cyani HAP2 D1D2 (residues 28–457) (domain or fragment)”, which stoichiometry N [3] is on record?
Answer: 3

Question: And the stoichiometry N [4]?
Answer: 3 and 2

Question: For “Cyani HAP2 ectodomain (residues 28–564) fusion loop mutant FL3 (W147A, L148A) (domain or fragment)”, which stoichiometry N [5] is on record?
Answer: 3

Question: What about the stoichiometry N [6] of the same substance?
Answer: 3

Question: “Cyani HAP2 ectodomain (aa 28–564), from Drosophila S2 cells (domain or fragment)” was tested. Which stoichiometry N [7] did it give?
Answer: 2 and 3

Question: What about the stoichiometry N [8] of the same substance?
Answer: 3 and 6

Question: And the stoichiometry N [9]?
Answer: 3 and 6

Question: And the stoichiometry N [10]?
Answer: 3

Question: And the stoichiometry N [11]?
Answer: 3

Question: Which stoichiometry N [12] does the source give for “Cyani HAP2 ectodomain (residues 28–564), wild type, from Expi293F cells (domain or fragment)” here?
Answer: 3

Question: And the stoichiometry N [13]?
Answer: 3

Question: And the stoichiometry N [14]?
Answer: 3

Question: “Chlamy HAP2 (Chlamydomonas reinhardtii HAP2), purified monomer (domain or fragment)” was tested. Which stoichiometry N [15] did it give?
Answer: 2 and 3

Question: What about the stoichiometry N [16] of the same substance?
Answer: 3 and 6
